Laboratory results published in patent US20160368965A1 (IMMATICS BIOTECHNOLOGIES, published 2016).

Molecular target: T1, HLA-A*02:01 (human)
T1 construct: the tested peptide takes its place; also called peptide-receptive MHC molecules; MHC class I
Assay: UV-ligand exchange, anti-β2m ELISA; grade of peptide exchange yield
Text: Candidate peptides for T cell based therapies according to the present invention were further tested for their MHC binding capacity (affinity). The individual peptide-MHC complexes were produced by UV-ligand exchange, where a UV-sensitive peptide is cleaved upon UV-irradiation, and exchanged with the peptide of interest as analyzed. Only peptide candidates that can effectively bind and stabilize the peptide-receptive MHC molecules prevent dissociation of the MHC complexes. To determine the yield of the exchange reaction, an ELISA was performed based on the detection of the light chain (β2m) of stabilized MHC complexes. The assay was performed as generally described in Rodenko et al. (Rodenko et al., 2006).
96 well MAXISorp plates (NUNC) were coated over night with 2 ug/ml streptavidin in PBS at room temperature, washed 4× and blocked for 1h at 37° C. in 2% BSA containing blocking buffer. Refolded HLA-A*02:01/MLA-001 monomers served as standards, covering the range of 15-500 ng/ml. Peptide-MHC monomers of the UV-exchange reaction were diluted 100 fold in blocking buffer. Samples were incubated for 1 h at 37° C., washed four times, incubated with 2 ug/ml HRP conjugated anti-β2m for 1h at 37° C., washed again and detected with TMB solution that is stopped with […]. Absorption was measured at 450 nm. […]

B1: SLTEQVHSL (SEQ ID NO: 141) (peptide)
peptide: SLTEQVHSL
  peptide exchange yield: 50 to 75%
